{
  "source": "paper PMC4041429",
  "origin": "cited, not measured here",
  "target": "β clamp (Escherichia coli) (UniProt P0A988)",
  "data": [
    {"substance": "β clamp (from UniProt P0A988)", "values": [
      {"measurement": "Kd", "value": "< 50", "unit": "nM"}
    ]}
  ]
}
